Biological target: the molecule itself
Experiment: cryo-EM structure; FraC (5 uM) incubated with DOPC LUVs at a protein/lipid ratio of 1:160 for 30 min; vitrified; 1,562 particles; oligomer bound to the vesicles (non-lytic, prepore)

B1: fragaceatoxin C (natural protein)
chain: ADVAGAVIDGAGLGFDVLKTVLEALGNVKRKIAVGIDNESGKTWTAMNTYFRSGTSDIVLPHKVAHGKALLYNGQKNRGPVATGVVGVIAYSMSDGNTLAVLFSVPYDYNWYSNWWNVRVYKGQKRADQRMYEELYYHRSPFRGDNGWHSRGLGYGLKSRGFMNSSGHAILEIHVTKA
notes: also called FraC; WT FraC; source: E. coli BL21 (DE3), purified (ion-exchange and size-exclusion chromatography)
For B1, which “stoichiometry N” value is on record?
Its value is 8.
